This note sets out measurements from the RNAGym collection of RNA variant scans (doi:10.7554/elife.90254).

First the molecules themselves.
B1: OR4K15 (parent)
chain: GUUAACGGUCAUAGGCCAUGGAAACUAGGAGCACCAUUUCGCUGCCAGUGAAGAAAUGAACAAAGAAAAUCUGGGCCAGGCAGGCAUCAAAAGAAAUAGUCUUGCGCUCAACCAGAAAGUCUGUAAUCAUUUUAAGGGUA

The variants in this series derive from B1. The series can be described thus: self-cleavage, relative activity (ratio to wild type); higher = more cleavage; in vitro, sequencing; the parent is a self-cleaving ribozyme.
Take A60G A78C: the self-cleavage was found to be 0.17.

As for A59G A92G, the self-cleavage came out at 1.22.

In the case of A59U U72C, the self-cleavage amounted to 0.17.

For A59U U72A, the self-cleavage worked out at 0.14.

As for A59C U100C, the self-cleavage amounted to 1.22.

On to A59G A140G, for which the self-cleavage stood at 1.25.

U57C A82G: the self-cleavage worked out at 0.49.

With G58U C107A, the self-cleavage was 0.03.

Turning to A60C U87C, the self-cleavage was found to be 1.18.

For A59G U131C, the self-cleavage amounted to 0.71.

For the variant A59G U131A, the self-cleavage was 1.54.

For the variant A60G U70G, the self-cleavage was determined as 1.65.

Turning to A60G U70C, the self-cleavage came to 0.8.

As for U57A U139A, the self-cleavage turned out to be 0.91.

Regarding A59C U127A, the self-cleavage amounted to 1.3.

With A59G U120A, the self-cleavage was determined as 1.23.

On to A60G G80U, for which the self-cleavage was determined as 0.09.

Take U57C A89U: the self-cleavage is 0.77.

G58U U120A: the self-cleavage came to 1.17.

As for U57A A116U, the self-cleavage came to 0.15.

With A60G U102C, the self-cleavage was found to be 1.4.

Regarding A62G A63G, the self-cleavage is 1.21.

For U57G A95G, the self-cleavage stood at 2.15.

In the case of A59G A68G, the self-cleavage came to 1.22.

For A59U U122C, the self-cleavage amounted to 0.69.

For A59U A82G, the self-cleavage is 0.43.

For the variant A59U A82U, the self-cleavage is 0.15.

Consider A60U A118G, for which the self-cleavage is 1.58.

On to G58A A111G, for which the self-cleavage turned out to be 0.

For A60U U131C, the self-cleavage worked out at 0.75.

Consider U57A G75A, for which the self-cleavage worked out at 0.27.

With A59G A96G, the self-cleavage worked out at 1.66.

With A59G A96U, the self-cleavage amounted to 0.71.

With A60G A140U, the self-cleavage worked out at 1.06.

For the variant A62C A78C, the self-cleavage is 0.31.

For the variant A60U A68G, the self-cleavage was found to be 1.79.

Take A62G A68U: the self-cleavage worked out at 1.33.

For A59U A62C, the self-cleavage stood at 1.11.

For the variant A59U A62U, the self-cleavage was 1.44.

Regarding U57G U87A, the self-cleavage is 1.47.

As for A60G G99U, the self-cleavage came to 0.38.

Take A60G U97A: the self-cleavage was determined as 1.69.

For G58A A95G, the self-cleavage came out at 1.51.

Turning to C61A, the self-cleavage was determined as 1.82.

C61G: the self-cleavage worked out at 1.24.

Consider C61U, for which the self-cleavage is 1.8.

For U57C A111U, the self-cleavage amounted to 0.08.

For the variant U57C A111G, the self-cleavage worked out at 0.01.

Consider U57A U100C, for which the self-cleavage came to 2.19.

A60U A110G: the self-cleavage was 0.24.

As for A59U A64G, the self-cleavage turned out to be 1.4.

For the variant A60C A135U, the self-cleavage was 1.44.

Turning to U57C A59G, the self-cleavage was found to be 0.57.

A60C U72A: the self-cleavage was 0.21.

On to A59U U103C, for which the self-cleavage stood at 0.31.

As to A60U A117U, the self-cleavage was found to be 1.11.

As for A60U G138A, the self-cleavage worked out at 1.37.

As for A59U A118G, the self-cleavage came to 0.75.

A62C U108A: the self-cleavage came to 0.02.

As for A59U A89G, the self-cleavage came to 1.48.

Turning to A59U A66G, the self-cleavage is 1.31.

For U57C A69C, the self-cleavage was 0.84.

Regarding U57C G106A, the self-cleavage came to 0.

Consider A60G A64G, for which the self-cleavage is 1.24.

For the variant A60C U130C, the self-cleavage was 1.4.

With U57A C105U, the self-cleavage was 0.04.

For the variant A60G A86G, the self-cleavage stood at 1.36.

Regarding U57A A118G, the self-cleavage turned out to be 1.37.

A60U G115A: the self-cleavage was 0.29.

Consider A59G A67G, for which the self-cleavage turned out to be 1.28.

On to A59G A69G, for which the self-cleavage was determined as 1.26.

For A59G A118U, the self-cleavage was found to be 0.74.

With A59G A118G, the self-cleavage was found to be 0.75.

Turning to A59C U122C, the self-cleavage was found to be 1.06.

As for U57C C76U, the self-cleavage was determined as 0.13.

As for A60G G74U, the self-cleavage came to 0.18.

Consider U57C A64G, for which the self-cleavage was found to be 0.81.

A59G A114G: the self-cleavage stood at 0.26.

On to A60G U122A, for which the self-cleavage stood at 1.41.

Regarding A60G U122C, the self-cleavage is 0.84.

With A59G A111U, the self-cleavage stood at 0.07.

Take A59G C107U: the self-cleavage came to 0.01.

For the variant A59G A135U, the self-cleavage amounted to 1.55.

Regarding A59G U139A, the self-cleavage was 2.02.

In the case of A59G U139C, the self-cleavage was determined as 1.4.

As to A60G C105A, the self-cleavage turned out to be 0.04.

A60G C105G: the self-cleavage amounted to 0.01.

As for C61U G138A, the self-cleavage was determined as 1.4.

Turning to A60U A90G, the self-cleavage is 1.34.

Regarding C61U A126G, the self-cleavage was found to be 0.55.

Turning to U57A U131C, the self-cleavage amounted to 1.07.

With A59G U97C, the self-cleavage worked out at 0.82.

As to U57C A62G, the self-cleavage was found to be 0.7.

Take A59G U124C: the self-cleavage was found to be 0.78.

A60U U127C: the self-cleavage turned out to be 0.92.

Consider A60U U127A, for which the self-cleavage came out at 2.36.

As for A60G A114G, the self-cleavage was found to be 0.31.

Consider A60G C112A, for which the self-cleavage is 0.02.

As to U57C C121A, the self-cleavage was 1.91.

As to U57C C121U, the self-cleavage was 2.46.

Regarding A59U A78C, the self-cleavage worked out at 0.4.

Regarding A59U A140G, the self-cleavage was determined as 2.05.

Turning to A60G A82G, the self-cleavage was 0.21.

Take A60G A82C: the self-cleavage was determined as 0.08.

A60G A82U: the self-cleavage was found to be 0.12.

With A60G A98G, the self-cleavage is 0.55.

Turning to A60G C121U, the self-cleavage came to 1.48.

Consider A59G G104A, for which the self-cleavage came to 0.06.

A60G C85U: the self-cleavage was determined as 1.31.

In the case of A59U A126G, the self-cleavage was 1.26.

As to A62C A94G, the self-cleavage came out at 1.61.

Consider A59G A126G, for which the self-cleavage was determined as 0.81.

In the case of U57G A62G, the self-cleavage is 0.83.

Consider A59U A96C, for which the self-cleavage came to 0.81.

As to A59U A96G, the self-cleavage came out at 1.87.

As for A62C A66G, the self-cleavage stood at 1.51.

On to A59G G75A, for which the self-cleavage amounted to 0.22.

Turning to A60G A67G, the self-cleavage came out at 0.84.

Consider G58A U102C, for which the self-cleavage turned out to be 2.39.

A60G: the self-cleavage was 1.14.

Take A60C: the self-cleavage was determined as 1.7.

For A60U, the self-cleavage is 1.29.

In the case of U57A U108A, the self-cleavage is 0.03.

On to U57A U108C, for which the self-cleavage came out at 0.02.

For A62C A69G, the self-cleavage was found to be 0.62.

Regarding A62G A89G, the self-cleavage amounted to 0.94.

With A60G A117G, the self-cleavage came out at 1.55.

Turning to A60G A117C, the self-cleavage worked out at 0.3.

Regarding A60U A140U, the self-cleavage worked out at 1.59.

Consider A60U A140G, for which the self-cleavage stood at 2.47.

As for A62C A67G, the self-cleavage worked out at 0.86.

Consider A60G C109A, for which the self-cleavage was 0.21.

Take A59G U132A: the self-cleavage came to 0.98.

For the variant G58U A126G, the self-cleavage was 0.8.

Turning to U57G U127C, the self-cleavage was determined as 1.33.

For G58U A117G, the self-cleavage was 1.89.

Consider U57G U130C, for which the self-cleavage amounted to 0.44.

Take U57C A60G: the self-cleavage came out at 1.01.

Take U57C A60U: the self-cleavage was 1.78.

For A59G A82G, the self-cleavage worked out at 0.45.

Take A59G A82U: the self-cleavage was 0.34.

For the variant A60U A86U, the self-cleavage is 1.67.

A60G C77U: the self-cleavage was 2.13.

On to A60U C113U, for which the self-cleavage stood at 0.27.

For the variant A59G U127C, the self-cleavage came out at 0.7.

In the case of A59G U127A, the self-cleavage is 1.82.

With U57C U103C, the self-cleavage was 0.86.

U57C U70C: the self-cleavage was found to be 0.47.

As for U57A U130A, the self-cleavage turned out to be 0.77.

With A59U A91U, the self-cleavage was found to be 1.44.

With A60C A68G, the self-cleavage worked out at 1.17.

Regarding A59G A116C, the self-cleavage was 0.07.

As for A59G U133C, the self-cleavage was 1.79.

Turning to A59G U133A, the self-cleavage came out at 1.28.

Turning to A60G C128U, the self-cleavage turned out to be 1.12.

Turning to A60G A89C, the self-cleavage was determined as 1.36.

With A60G A89U, the self-cleavage is 1.5.

As to A60G A89G, the self-cleavage was 1.55.

With U57C U120C, the self-cleavage was 0.41.

As to U57C U120A, the self-cleavage worked out at 2.01.

With A59G G93A, the self-cleavage is 1.61.

In the case of A60G U124A, the self-cleavage turned out to be 0.75.

For A60G U87A, the self-cleavage turned out to be 1.02.

Turning to A62C U87A, the self-cleavage stood at 1.54.

Turning to A59U U70C, the self-cleavage came out at 0.53.

For the variant A60G A66U, the self-cleavage was 1.26.

U57C A92G: the self-cleavage was 0.71.
